These results are taken from publication PMC3087488 (Journal of Oncology, 2011).

Several values for one entry are separate records, joined by “and”; a condition that tells them apart may be missing. Equal values may be shown once.

The nature of data set [1]: plasma gemcitabine concentration in patients. The following applies: completion of infusion, gemcitabine 1250 mg/m^2. Type of data set: in vivo, human. How it is done: Plasma motesanib and gemcitabine concentrations were analyzed using a validated liquid chromatography/tandem mass spectrometry (LC-MS/MS) method, respectively. […] All pharmacokinetic parameter estimates were calculated using standard noncompartmental methods and WinNonlin Professional software on […] (Version 5.1.1, Pharsight Corporation, Mountain View, Calif, USA).

The conditions of data set [2]: bevacizumab 15-mg/kg cohort plus carboplatin/paclitaxel; locally advanced or metastatic NSCLC; grade 3/4, n = 5; cited from earlier work.
A short description of data set [3]: serum panitumumab concentration in patients. The class given is in vivo, human. Conditions: panitumumab 9 mg/kg.
Data set [4] can be described thus: adverse events in patients (CTCAE version 3.0). Type of data set: in vivo, human. The protocol: Adverse events were recorded throughout the study and graded (including DLTs) according to the Common Terminology Criteria for Adverse Events, version 3.0. Samples for assessment of hematology, blood chemistry, urinalysis, and thyroid function were collected on day 1 of each cycle.

Setting [5] is: 8 patients who received panitumumab and gemcitabine/cisplatin only.
Setting [6] is: all 41 patients (7%), only in patients who also received motesanib.

With `Nc1ccn([C@@H]2O[C@H](CO)[C@@H](O)C2(F)F)c(=O)n1` [gemcitabine], the “Plasma gemcitabine concentration (cycle 1), mean (SD)” value was 11000 ng/mL and 11000 (4220) ng/mL in data set [1] (No motesanib (0 mg QD), n 8); 8450 (7310) ng/mL in data set [1] (with motesanib 50 mg QD, n 8); 14400 (6020) ng/mL in data set [1] (with motesanib 75 mg QD, n 6); 6160 (3690) ng/mL in data set [1] (with motesanib 100 mg QD, n 6); 16100 ng/mL and 16100 (6800) ng/mL in data set [1] (with motesanib 125 mg QD, n 11). In addition, in data set [1] (with motesanib 75 mg BID, n 2), the “Plasma gemcitabine concentration (cycle 1), mean” value was 8290 (NR) ng/mL.
As to bevacizumab, the “patient incidence rate of thrombotic events” value in data set [2] was 17.6%.
Turning to panitumumab, the “Serum panitumumab, Cycle 4 postdose mean concentration (SD)” value in data set [3] (No motesanib (0 mg QD), n 3) is 275 (118) μg/mL. In addition, the “Serum panitumumab, Cycle 4 predose mean concentration (SD)” value in data set [3] (No motesanib (0 mg QD), n 4) is 56.5 (39.6) μg/mL. For the same compound, in data set [3] (No motesanib (0 mg QD), n 6), the “Serum panitumumab, Cycle 2 postdose mean concentration (SD)” value is given as 186 (62.9) μg/mL and the “Serum panitumumab, Cycle 2 predose mean concentration (SD)” value is reported as 11.2 (15.5) μg/mL. Further, the “Serum panitumumab, Cycle 1 postdose mean concentration (SD)” value in data set [3] (No motesanib (0 mg QD), n 8) is reported as 206 (76.4) μg/mL. Further, in data set [3] (with motesanib 50 mg QD, n 3), the “Serum panitumumab, Cycle 4 postdose mean concentration (SD)” value was 232 (52.8) μg/mL and the “Serum panitumumab, Cycle 4 predose mean concentration (SD)” value was 10.5 (6.4) μg/mL. Besides, the “Serum panitumumab, Cycle 2 postdose mean concentration (SD)” value in data set [3] (with motesanib 50 mg QD, n 5) is reported as 193 (37.5) μg/mL. In data set [3] (with motesanib 50 mg QD, n 7), the “Serum panitumumab, Cycle 1 postdose mean concentration (SD)” value is 174 (24.9) μg/mL and the “Serum panitumumab, Cycle 2 predose mean concentration (SD)” value was 9.0 (5.8) μg/mL. For the same compound, in data set [3] (with motesanib 75 mg BID, n 1), the “Serum panitumumab, Cycle 2 postdose mean concentration” value is reported as 217 (NR) μg/mL and the “Serum panitumumab, Cycle 2 predose mean concentration” value was 11.2 (NR) μg/mL. Besides, the “Serum panitumumab, Cycle 1 postdose mean concentration” value in data set [3] (with motesanib 75 mg BID, n 2) is on record as 189 (NR) μg/mL. Also, the “Serum panitumumab, Cycle 4 predose mean concentration (SD)” value in data set [3] (with motesanib 75 mg QD, n 5) is given as 32.5 (21.3) μg/mL. In data set [3] (with motesanib 75 mg QD, n 6), the “Serum panitumumab, Cycle 1 postdose mean concentration (SD)” value was 158 (24.2) μg/mL; the “Serum panitumumab, Cycle 2 postdose mean concentration (SD)” value is given as 194 (21.5) μg/mL; the “Serum panitumumab, Cycle 2 predose mean concentration (SD)” value is reported as 13.1 (13.5) μg/mL; the “Serum panitumumab, Cycle 4 postdose mean concentration (SD)” value was 218 (26.1) μg/mL. In data set [3] (with motesanib 100 mg QD, n 2), the “Serum panitumumab, Cycle 4 postdose mean concentration” value was 290 (NR) μg/mL. Moreover, in data set [3] (with motesanib 100 mg QD, n 4), the “Serum panitumumab, Cycle 2 postdose mean concentration (SD)” value is 224 (51.8) μg/mL and the “Serum panitumumab, Cycle 4 predose mean concentration (SD)” value is 41.6 (16.5) μg/mL. Moreover, in data set [3] (with motesanib 100 mg QD, n 5), the “Serum panitumumab, Cycle 1 postdose mean concentration (SD)” value is on record as 194 (27.1) μg/mL and the “Serum panitumumab, Cycle 2 predose mean concentration (SD)” value is listed as 18.9 (10.7) μg/mL. In data set [3] (with motesanib 125 mg QD, n 3), the “Serum panitumumab, Cycle 4 postdose mean concentration (SD)” value was 170 (55.0) μg/mL and the “Serum panitumumab, Cycle 4 predose mean concentration (SD)” value is given as 21.7 (22.0) μg/mL. In data set [3] (with motesanib 125 mg QD, n 6), the “Serum panitumumab, Cycle 2 postdose mean concentration (SD)” value is 213 (39.0) μg/mL and the “Serum panitumumab, Cycle 2 predose mean concentration (SD)” value is given as 13.4 (14.2) μg/mL. Besides, the “Serum panitumumab, Cycle 1 postdose mean concentration (SD)” value in data set [3] (with motesanib 125 mg QD, n 11) is reported as 203 (82.9) μg/mL. In data set [4] (setting [5]), this compound showed a panitumumab-related dermatitis acneiform of 5 patients, a panitumumab-related erythema of 5 patients, a panitumumab-related nausea of 6 patients and a panitumumab-related pruritus of 5 patients. The panitumumab-related rash in data set [4] (setting [5]) was 6 patients. In data set [4] (all 41 patients), this compound yielded a panitumumab-related anemia of 7 patients, a panitumumab-related anorexia of 11 patients, a panitumumab-related diarrhea of 16 patients and a panitumumab-related dry skin of 7 patients. In data set [4] (all 41 patients), the panitumumab-related fatigue is reported as 19 patients, the panitumumab-related hypomagnesemia came to 17 patients, the panitumumab-related nausea is recorded as 21 patients and the panitumumab-related pruritus turned out to be 18 patients. Further, in data set [4] (all 41 patients), the panitumumab-related rash is 22 patients and the panitumumab-related vomiting was 12 patients. Further, the serious panitumumab-related diarrhea in data set [4] (all 41 patients (5%)) stood at 2 patients. In data set [4] (all 41 patients (7%)), this compound registered a serious panitumumab-related dehydration of 3 patients. In data set [4] (setting [6]), the “serious panitumumab-related deep vein thrombosis” value is 3 patients and the “serious panitumumab-related pulmonary embolism” value came to 3 patients. Also, in data set [4] (all 41 patients, eleven patients), the “patients with serious panitumumab-related events” value is listed as 27%. Also, in data set [4] (all cohorts), the “patients who discontinued panitumumab because of adverse events” value amounted to 11 patients.
